{"source": "paper PMC10889000", "binders": {"B1": {"name": "Insulin-like growth factor 2 mRNA binding protein 2, full-length, Q9Y6M1 1-599 (natural protein)", "chain": "MMNKLYIGNLSPAVTADDLRQLFGDRKLPLAGQVLLKSGYAFVDYPDQNWAIRAIETLSGKVELHGKIMEVDYSVSKKLRSRKIQIRNIPPHLQWEVLDGLLAQYGTVENVEQVNTDTETAVVNVTYATREEAKIAMEKLSGHQFENYSFKISYIPDEEVSSPSPPQRAQRGDHSSREQGHAPGGTSQARQIDFPLRILVPTQFVGAIIGKEGLTIKNITKQTQSRVDIHRKENSGAAEKPVTIHATPEGTSEACRMILEIMQKEADETKLAEEIPLKILAHNGLVGRLIGKEGRNLKKIEHETGTKITISSLQDLSIYNPERTITVKGTVEACASAEIEIMKKLREAFENDMLAVNQQANLIPGLNLSALGIFSTGLSVLSPPAGPRGAPPAAPYHPFTTHSGYFSSLYPHHQFGPFPHHHSYPEQEIVNLFIPTQAVGAIIGKKGAHIKQLARFAGASIKIAPAEGPDVSERMVIITGPPEAQFKAQGRIFGKLKEENFFNPKEEVKLEAHIRVPSSTAGRVIGKGGKTVNELQNLTSAEVIVPRDQTPDENEEVIVRIIGHFFASQTAQRKIREIVQQVKQQEQKYPQGVASQRSK"}}, "target": "Insulin-like growth factor 2 mRNA binding protein 2, full-length, Q9Y6M1", "assay": "mass photometry", "conditions": "remark: other sources report otherwise"}
{"binder": "B1", "values": [{"measurement": "percent of the protein in the ˜160kDa species", "value": 42, "unit": "%"}]}
